The results in this text go back to publication PMC9242541, “Importance of Rare DPYD Genetic Polymorphisms for 5-Fluorouracil Therapy in the Japanese Population” (Frontiers in Pharmacology, 2022).

Substitutions are numbered along the chain they refer to.

This data set deals with the molecule itself. Nature of the data set: native gel or EMSA; blue native PAGE (Tris-glycine buffer, 5%-20% polyacrylamide gels), 9 μg of the soluble fraction of transfected 293FT cells per lane, immunoblot with polyclonal anti-human DPD antibody; monomer to dimer.

B1: wild-type dihydropyrimidine dehydrogenase (DPD) (enzyme, human, UniProt Q12882 4-1025, looked up)
chain: VLSKDSADIESILALNPRTQTHATLCSTSAKKLDKKHWKRNPDKNCFNCEKLENNFDDIKHTTLGERGALREAMRCLKCADAPCQKSCPTNLDIKSFITSIANKNYYGAAKMIFSDNPLGLTCGMVCPTSDLCVGGCNLYATEEGPINIGGLQQFATEVFKAMSIPQIRNPSLPPPEKMSEAYSAKIALFGAGPASISCASFLARLGYSDITIFEKQEYVGGLSTSEIPQFRLPYDVVNFEIELMKDLGVKIICGKSLSVNEMTLSTLKEKGYKAAFIGIGLPEPNKDAIFQGLTQDQGFYTSKDFLPLVAKGSKAGMCACHSPLPSIRGVVIVLGAGDTAFDCATSALRCGARRVFIVFRKGFVNIRAVPEEMELAKEEKCEFLPFLSPRKVIVKGGRIVAMQFVRTEQDETGKWNEDEDQMVHLKADVVISAFGSVLSDPKVKEALSPIKFNRWGLPEVDPETMQTSEAWVFAGGDVVGLANTTVESVNDGKQASWYIHKYVQSQYGASVSAKPELPLFYTPIDLVDISVEMAGLKFINPFGLASATPATSTSMIRRAFEAGWGFALTKTFSLDKDIVTNVSPRIIRGTTSGPMYGPGQSSFLNIELISEKTAAYWCQSVTELKADFPDNIVIASIMCSYNKNDWTELAKKSEDSGADALELNLSCPHGMGERGMGLACGQDPELVRNICRWVRQAVQIPFFAKLTPNVTDIVSIARAAKEGGANGVTATNTVSGLMGLKSDGTPWPAVGIAKRTTYGGVSGTAIRPIALRAVTSIARALPGFPILATGGIDSAESGLQFLHSGASVLQVCSAIQNQDFTVIEDYCTGLKALLYLKSIEELQDWDGQSPATVSHQKGKPVPRIAELMDKKLPSFGPYLEQRKKIIAENKIRLKEQNVAFSPLKRNCFIPKRPIPTIKDVIGKALQYLGTFGELSNVEQVVAMIDEEMCINCGKCYMTCNDSGYQAIQFDPETHLPTITDTCTGCTLCLSVCPIVDCIKMVSRTTPYEPKRGVPLSVNPVC
notes: dihydropyrimidine dehydrogenase (DPD), human, wild-type DPYD cDNA; the open-reading frame encodes 1,025 amino acid residues; no tag is stated; also called wild-type DPD; source: 293FT cells, transfected (pcDNA3.4), soluble fraction
What is called stoichiometry N is a count of units in the complex or per binding partner. Take B1: the “stoichiometry N” value was found to be 2.

B2: DPD variant T768K (enzyme, human, UniProt Q12882 4-1025, looked up)
chain: B1 chain with T765K
notes: dihydropyrimidine dehydrogenase (DPD), human, DPYD cDNA with a variant found in Japanese individuals; made by site-directed mutagenesis of the wild-type construct; also called 2303C > A; source: 293FT cells, transfected (pcDNA3.4), soluble fraction
B2: the “stoichiometry N” value is 2.

B3: DPD variant M321I (enzyme, human, UniProt Q12882 4-1025, looked up)
chain: B1 chain with M318I
notes: dihydropyrimidine dehydrogenase (DPD), human, DPYD cDNA with a variant found in Japanese individuals; made by site-directed mutagenesis of the wild-type construct; also called 963G > A; source: 293FT cells, transfected (pcDNA3.4), soluble fraction
Consider B3, for which the “stoichiometry N” value was found to be 2.

B4: DPD variant N151D (enzyme, human, UniProt Q12882 4-1025, looked up)
chain: B1 chain with N148D
notes: dihydropyrimidine dehydrogenase (DPD), human, DPYD cDNA with a variant found in Japanese individuals; made by site-directed mutagenesis of the wild-type construct; also called 451A > G; source: 293FT cells, transfected (pcDNA3.4), soluble fraction
Consider B4, for which the “stoichiometry N” value stood at 2.

B5: DPD variant M77V (enzyme, human, UniProt Q12882 4-1025, looked up)
chain: B1 chain with M74V
notes: dihydropyrimidine dehydrogenase (DPD), human, DPYD cDNA with a variant found in Japanese individuals; made by site-directed mutagenesis of the wild-type construct; also called 229A > G; source: 293FT cells, transfected (pcDNA3.4), soluble fraction
For the protein B5, the “stoichiometry N” value came to 2.

B6: DPD risk variant D949V (enzyme, human, UniProt Q12882 4-1025, looked up)
chain: B1 chain with D946V
notes: dihydropyrimidine dehydrogenase (DPD), human, DPYD cDNA with a risk variant reported in Caucasians; made by site-directed mutagenesis of the wild-type construct; also called c.2846A>T; 2846A > T; source: 293FT cells, transfected (pcDNA3.4), soluble fraction
As for B6, the “stoichiometry N” value was determined as 2.

B7: DPD variant S175L (enzyme, human, UniProt Q12882 4-1025, looked up)
chain: B1 chain with S172L
notes: dihydropyrimidine dehydrogenase (DPD), human, DPYD cDNA with a variant found in Japanese individuals; made by site-directed mutagenesis of the wild-type construct; also called 524C > T; source: 293FT cells, transfected (pcDNA3.4), soluble fraction
As for B7, the “stoichiometry N” value is 2.

B8: DPD variant V515I (enzyme, human, UniProt Q12882 4-1025, looked up)
chain: B1 chain with V512I
notes: dihydropyrimidine dehydrogenase (DPD), human, DPYD cDNA with a variant found in Japanese individuals; made by site-directed mutagenesis of the wild-type construct; also called 1543G > A; source: 293FT cells, transfected (pcDNA3.4), soluble fraction
Regarding B8, the “stoichiometry N” value stood at 2.

B9: DPD variant C354Y (enzyme, human, UniProt Q12882 4-1025, looked up)
chain: B1 chain with C351Y
notes: dihydropyrimidine dehydrogenase (DPD), human, DPYD cDNA with a variant found in Japanese individuals; made by site-directed mutagenesis of the wild-type construct; also called 1061G > A; source: 293FT cells, transfected (pcDNA3.4), soluble fraction
As for B9, the “stoichiometry N” value came to 2.

B10: DPD variant I245F (enzyme, human, UniProt Q12882 4-1025, looked up)
chain: B1 chain with I242F
notes: dihydropyrimidine dehydrogenase (DPD), human, DPYD cDNA with a variant found in Japanese individuals; made by site-directed mutagenesis of the wild-type construct; also called 733A > T; source: 293FT cells, transfected (pcDNA3.4), soluble fraction
With B10, the “stoichiometry N” value amounted to 2.

B11: DPD variant Y109N (enzyme, human, UniProt Q12882 4-1025, looked up)
chain: B1 chain with Y106N
notes: dihydropyrimidine dehydrogenase (DPD), human, DPYD cDNA with a variant found in Japanese individuals; made by site-directed mutagenesis of the wild-type construct; also called 325T > A; source: 293FT cells, transfected (pcDNA3.4), soluble fraction
Consider B11, for which the “stoichiometry N” value was 2.

B12: DPD variant I528V (enzyme, human, UniProt Q12882 4-1025, looked up)
chain: B1 chain with I525V
notes: dihydropyrimidine dehydrogenase (DPD), human, DPYD cDNA with a variant found in Japanese individuals; made by site-directed mutagenesis of the wild-type construct; also called 1582A > G; source: 293FT cells, transfected (pcDNA3.4), soluble fraction
As for B12, the “stoichiometry N” value was 2.

B13: DPD variant N893S (enzyme, human, UniProt Q12882 4-1025, looked up)
chain: B1 chain with N890S
notes: dihydropyrimidine dehydrogenase (DPD), human, DPYD cDNA with a variant found in Japanese individuals; made by site-directed mutagenesis of the wild-type construct; also called 2678A > G; source: 293FT cells, transfected (pcDNA3.4), soluble fraction
Take B13: the “stoichiometry N” value came to 2.

B14: DPD variant V738L (enzyme, human, UniProt Q12882 4-1025, looked up)
chain: B1 chain with V735L
notes: dihydropyrimidine dehydrogenase (DPD), human, DPYD cDNA with a variant found in Japanese individuals; made by site-directed mutagenesis of the wild-type construct; also called 2212G > C; source: 293FT cells, transfected (pcDNA3.4), soluble fraction
On to B14, for which the “stoichiometry N” value came out at 2.

B15: DPD variant R886H (enzyme, human, UniProt Q12882 4-1025, looked up)
chain: B1 chain with R883H
notes: dihydropyrimidine dehydrogenase (DPD), human, DPYD cDNA with a variant found in Japanese individuals; made by site-directed mutagenesis of the wild-type construct; also called 2657G > A (*9B); source: 293FT cells, transfected (pcDNA3.4), soluble fraction
On to B15, for which the “stoichiometry N” value worked out at 2.

B16: DPD variant V434L (enzyme, human, UniProt Q12882 4-1025, looked up)
chain: B1 chain with V431L
notes: dihydropyrimidine dehydrogenase (DPD), human, DPYD cDNA with a variant found in Japanese individuals; made by site-directed mutagenesis of the wild-type construct; also called 1300G > C; source: 293FT cells, transfected (pcDNA3.4), soluble fraction
Take B16: the “stoichiometry N” value amounted to 2.

B17: DPD variant T298M (enzyme, human, UniProt Q12882 4-1025, looked up)
chain: B1 chain with T295M
notes: dihydropyrimidine dehydrogenase (DPD), human, DPYD cDNA with a variant found in Japanese individuals; made by site-directed mutagenesis of the wild-type construct; also called 893C > T; source: 293FT cells, transfected (pcDNA3.4), soluble fraction
As for B17, the “stoichiometry N” value worked out at 2.

B18: DPD variant G366A (enzyme, human, UniProt Q12882 4-1025, looked up)
chain: B1 chain with G363A
notes: dihydropyrimidine dehydrogenase (DPD), human, DPYD cDNA with a variant found in Japanese individuals; made by site-directed mutagenesis of the wild-type construct; also called 1097G > C; source: 293FT cells, transfected (pcDNA3.4), soluble fraction
B18: the “stoichiometry N” value was 2.

B19: DPD variant F524L (enzyme, human, UniProt Q12882 4-1025, looked up)
chain: B1 chain with F521L
notes: dihydropyrimidine dehydrogenase (DPD), human, DPYD cDNA with a variant found in Japanese individuals; made by site-directed mutagenesis of the wild-type construct; also called 1572T > G; source: 293FT cells, transfected (pcDNA3.4), soluble fraction
As for B19, the “stoichiometry N” value was found to be 2.

B20: DPD variant I543V (enzyme, human, UniProt Q12882 4-1025, looked up)
chain: B1 chain with I540V
notes: dihydropyrimidine dehydrogenase (DPD), human, DPYD cDNA with a variant found in Japanese individuals; made by site-directed mutagenesis of the wild-type construct; also called 1627A > G (*5); source: 293FT cells, transfected (pcDNA3.4), soluble fraction
Take B20: the “stoichiometry N” value worked out at 2.

B21: DPD variant I560V (enzyme, human, UniProt Q12882 4-1025, looked up)
chain: B1 chain with I557V
notes: dihydropyrimidine dehydrogenase (DPD), human, DPYD cDNA with a variant found in Japanese individuals; made by site-directed mutagenesis of the wild-type construct; also called 1678A > G; source: 293FT cells, transfected (pcDNA3.4), soluble fraction
As for B21, the “stoichiometry N” value came out at 2.
